From US20190071490A1, “Preventing Post-Ictal Headaches” (Beth Israel Deaconess Medical Center, Inc., priority 2017, published 2019) come the findings set out here.

Experiment [1] has as its target T1, 38A (25-38A) human α-CGRP (Homo sapiens, UniProt P06881).
T1 construct: 25-38A; 24; purchased GenScript Corporation, New Jersey or Global Peptide Services, Colorado
The experiment in a line: Biacore affinity of G1 Fab to CGRP variant on chip. The following applies: 38A (25-38A) on chip, 37° C. Type of experiment: binding. As for the experimental part:
Biacore assay for affinity determination. […] All Biacore assays were conducted in HBS-EP running buffer (10 mM HEPES pH 7.4, 150 mM NaCl, 3 mM EDTA, 0.005% v/v polysorbate P20). CGRP surfaces were prepared by diluting the N-biotinylated CGRP to a concentration of less than 0.001 mg/mL into HBS-EP buffer and injecting it across the SA sensor chip using variable contact times. Low capacity surfaces, corresponding to capture levels <50 response units (RU) were used for high-resolution kinetic studies, whereas high capacity surfaces (about 800 RU of captured CGRP) were used for concentration studies, screening, and solution affinity determinations. […] Samples were typically injected for 1 minute at 100 μL/min and dissociation times of at least 10 minutes were allowed. After each binding cycle, surfaces were regenerated with 25 mM NaOH in 25% v/v ethanol, which was tolerated over hundreds of cycles. An entire titration series (typically generated in duplicate) was fit globally to a 1:1 Langmuir binding model using the BIAevaluation program. This returned a unique pair of association and dissociation kinetic rate constants (respectively, kon and koff) for each binding interaction, whose ratio gave the equilibrium dissociation constant (KD=koff/kon).

The test system of experiment [2] is naïve central trigeminovascular neurons (HT, WDR) in the spinal trigeminal nucleus. The experiment in a line: Single-unit recording of spontaneous and evoked activity of naïve trigeminovascular neurons. Conditions: 30 mg/kg i.v.; for effect on spontaneous activity of naïve HT and WDR neurons: 1-4 hours post-treatment vs baseline. Type of experiment: in vivo, rat. The source says: Experiments were approved by the Beth Israel Deaconess Medical Center and Harvard Medical School standing committees on animal care, and in accordance with the U.S. National Institutes of Health Guide for the Care and Use of Laboratory Animals. Male and female Sprague-Dawley rats (250-350 g) were anesthetized with urethane (0.9-1.2 g/kg i.p.). They were fitted with an intra-tracheal tube to allow artificial ventilation (0.1 L/min of O2), and an intra-femoral-vein cannula for later infusion of drugs. Rats were placed in a stereotaxic apparatus, and core temperature was kept at 37° C. using a heating blanket. End-tidal CO2 was continuously monitored and kept within physiological range (3.5-4.5 pCO2). Once stabilized, rats were paralyzed with rocuronium bromide (10 mg/ml, 1 ml/hr continuous intravenous infusion) and ventilated. For stimulation of the cranial dura later in the experiment, a 5×5-mm opening was carefully carved in the parietal and occipital bones in front and behind the lambda suture, directly above the left transverse sinus. The exposed dura was kept moist using a modified synthetic interstitial fluid (135 mM NaCl, 5 mM KCl, 1 mM MgCl2, 5 mM CaCl2), 10 mM glucose and 10 mM Hepes, pH 7.2). For single-unit recording in the spinal trigeminal nucleus, a segment of the spinal cord between the obex and C2 was uncovered from overlying tissues, stripped of the dura mater, and kept moist with mineral oil.
To record neuronal activity, a tungsten microelectrode (impedance 3-4 MΩ) was lowered repeatedly into the spinal trigeminal nucleus (STN) in search of central trigeminovascular neurons receiving convergent input from the dura and facial skin. Trigeminovascular neurons were first identified based on their responses to electrical stimulation of the dura. […] Dural receptive fields were mapped by indenting the dura (with the 4.19 g VFH monofilament) at points separated by 1 mm mediolaterally and rostrocaudally. Points at which dural indentation produced a response in ≥50% of the trials were considered inside the neurons receptive field. Cutaneous receptive fields were mapped by applying innocuous and noxious mechanical stimulation to all facial skin areas and the cornea. An area was considered outside the receptive field if no stimulus produced a response in ≥50% of the trials. Responses to mechanical stimulation of the skin were determined by applying brief (10 s) innocuous and noxious stimuli to the most sensitive portion of the cutaneous receptive field. Innocuous stimuli consisted of slowly passing a soft bristled brush across the cutaneous receptive field (one 5-s brush stroke from caudal to rostral and one 5-s brush stroke from rostral to caudal) and pressure applied with a loose arterial clip. Noxious stimuli consisted of pinch with a strong arterial clip (Palecek et al., 1992, J. Neurophysiol. 67:1562-1573; Dado et al., 1994, J. Neurophysiol. 71:981-1002; Burstein et al., 1998, J. Neurophysiol. 79:964-982). More intense or prolonged stimuli were not used to avoid inducing prolonged changes in spontaneous neuronal discharge or response properties. Responses to mechanical stimulation of the cornea consisted of gentle and slow brushing strokes with a thin paintbrush (about 10 hair-follicles). Two classes of neurons were thus identified: wide-dynamic-range (WDR) neurons (incrementally responsive to brush, pressure and pinch), and high-threshold (HT) neurons (unresponsive to brush). Real-time waveform discriminator was used to create and store a template for the action potential evoked in the neuron under study by electrical pulses on the dura; spikes of activity matching the template waveform were acquired and analyzed online and offline using Spike 2 software (CED, Cambridge, UK).
It was diluted in saline to a final dose of 30 mg/kg and administered intravenously (bolus injection, total volume 0.6-0.7 ml). […]

For experiment [3], the system named is first-order trigeminovascular neurons (A-delta and C-type meningeal nociceptors). The experiment in a line: Single-unit recording of first-order neurons in the trigeminal ganglion evoked by CSD. Type of experiment: in vivo, rat. Conditions: male rats. The procedure:
CSD was induced by pinprick 4 hours after drug/isotype infusion.

B1: G1: humanized monoclonal anti-CGRP antagonist antibody; heavy chain SEQ ID NO:11, light chain SEQ ID NO:12 (antibody)
heavy: EVQLVESGGGLVQPGGSLRLSCAASGFTFSNYWISWVRQAPGKGLEWVAEIRSESDASATHYAEAVKGRFTISRDNAKNSLYLQMNSLRAEDTAVYYCLAYFDYGLAIQNYWGQGTLVTVSSASTKGPSVFPLAPCSRSTSESTAALGCLVKDYFPEPVTVSWNSGALTSGVHTFPAVLQSSGLYSLSSVVTVPSSNFGTQTYTCNVDHKPSNTKVDKTVERKCCVECPPCPAPPVAGPSVFLFPPKPKDTLMISRTPEVTCVVVDVSHEDPEVQFNWYVDGVEVHNAKTKPREEQFNSTFRVVSVLTVVHQDWLNGKEYKCKVSNKGLPSSIEKTISKTKGQPREPQVYTLPPSREEMTKNQVSLTCLVKGFYPSDIAVEWESNGQPENNYKTTPPMLDSDGSFFLYSKLTVDKSRWQQGNVFSCSVMHEALHNHYTQKSLSLSPGK
light: EIVLTQSPATLSLSPGERATLSCKASKRVTTYVSWYQQKPGQAPRLLIYGASNRYLGIPARFSGSGSGTDFTLTISSLEPEDFAVYYCSQSYNYPYTFGQGTKLEIKRTVAAPSVFIFPPSDEQLKSGTASVVCLLNNFYPREAKVQWKVDNALQSGNSQESVTEQDSKDSTYSLSSTLTLSKADYEKHKVYACEVTHQGLSSPVTKSFNRGEC
As for B1, in experiment [1], the “KD (nM)” value is on record as “No binding detected”. Besides, the “effect on spontaneous activity of naïve HT and WDR neurons” value is “did not reduce the spontaneous activity of HT or WDR neurons” in experiment [2] (female rats) and “reduced the spontaneous activity of the HT but not the WDR neurons” in experiment [2] (male rats). The “decrease of firing of HT neurons in response to dural indentation” value in experiment [2] (female rats, p=0.017) is reported as 61%; in experiment [2] (male rats, p=0.047), 75%. For the same molecule, the “effect on sensitivity to mechanical stimulation of the dura (dural indentation), HT and WDR neurons” value in experiment [2] (male and female rats) is “reduced the sensitivity to mechanical stimulation of the dura in the HT but not the WDR neurons”. For the same molecule, the “effect on responses to innocuous (brush, pressure) or noxious (pinch) mechanical stimulation of the skin or the cornea” value in experiment [2] (male or female rats, HT or WDR neurons) is listed as “did not alter the responses of HT or WDR neurons”. Besides, the “decrease of spontaneous neuronal firing, HT neurons” value in experiment [2] (male rats, within 3-4 hrs, p=0.040) was 90%. Also, the “activation of meningeal nociceptors by CSD (FIGS. 23A and 23B)” value in experiment [3] was “prevents the activation of most a-delta and some C-type meningeal nociceptors”. The “C-fibers activated by CSD” value in experiment [3] (30 mg/kg IV 4 hours before CSD) worked out at 23%. The “a-delta fibers activated by CSD” value in experiment [3] (30 mg/kg IV 4 hours before CSD) is 14%. Further, the “neurons tested that were activated by CSD” value in experiment [3] (30 mg/kg IV 4 hours before CSD, all first-order neurons) came out at 20%.
